In PMC3102659:

How the values were obtained:
[1] = biological target: human blood coagulation factor X (FX) (human)
[2] = biological target: human blood coagulation factor X (FX) (human); assay: SPR; biotinylated hypersulfated heparin (HS) on a streptavidin CM4 chip, BIAcore3000; hexon or virions injected alone or mixed with FX or FXGL; read-out is the FX-bridged binding to HS; HBS (10 mM HEPES, 150 mM NaCl, pH 7.4) with 3 mM CaCl2, 5 µl/min
[3] = biological target: human blood coagulation factor X (FX) (human); remark: listed apart in the source
[4] = biological target: immobilized HS (hypersulfated heparin), bridged by FX (m1); assay: SPR; conditions: virion + FX at 8 µg/ml (FXmax); HS immobilized on chip; read at end of injection (~285 s); parent: est. 2900; read off a plot
[5] = biological target: TTAT mutant fiber of HAdV5 (KKTK motif of the shaft mutated) (human adenovirus serotype 5) (UniProt P11818); assay: not stated; data not shown: folding of TTAT mutant fibers as trimers

Substance	cell-bound virions on CHO-K1 cells (qPCR of viral genomes), MOI 5,000, 1 h at 4°C, increase with FX 8 µg/ml over no FX [1] [fold]	response [4] [RU]	further results
HAdV5F35 virion (serotype 35 fiber-pseudotyped HAdV5 vector) (from UniProt P04133 1-952; P12538 1-571) (complex)	10		copies of FX per virion at maximum FX-mediated binding to HS (copies of FX per virion) [2]: 480
HAdV5F^TTAT virion (HAdV5 vector mutated in the KKTK motif of the fiber shaft) (from UniProt P04133 1-952; P12538 1-571; P11818 1-581) (complex)			enhancement of transduction efficiency of CHO-K1 cells, MOI 2,500, increasing doses of FX up to FXmax (8 µg/ml) [3]: 65 fold
HAdV5wt virion (replication-deficient HAdV5 vector with nonmodified capsid) (from UniProt P04133 1-952; P12538 1-571; P11818 1-581) (complex)	5 to 6		
HAdV5wt virion (replication-deficient HAdV5 vector with nonmodified capsid) (from UniProt P04133;P12538;P11818) fiber:K91T; fiber:K92T; fiber:T93A; fiber:K94T		2400	
HAdV5wt virion (replication-deficient HAdV5 vector with nonmodified capsid) (from UniProt P04133;P12538;P11818) penton base:R340E		2500	
TTAT mutant fiber of HAdV5 (KKTK motif of the shaft mutated) (from UniProt P11818 1-581) (natural protein)			stoichiometry N [5]: 3
